Target: Tat13-Strep-Tactin (HIV-1 | Streptomyces avidinii)
Test: SDS-PAGE of tetramers after heating

Work on Tat13-Strep-Tactin (designed binder) yielded a stoichiometry N of 4.

— publication PMC3823275
